Key:
Assay in all cases: cleavage_in_vitro
[1] = target: T1, TtCsm6 (Thermus thermophilus) (UniProt Q53W17); settings: cyclic, 3'-5' linked; c(AMP)4 amount required to activate RNase
T1 sequence: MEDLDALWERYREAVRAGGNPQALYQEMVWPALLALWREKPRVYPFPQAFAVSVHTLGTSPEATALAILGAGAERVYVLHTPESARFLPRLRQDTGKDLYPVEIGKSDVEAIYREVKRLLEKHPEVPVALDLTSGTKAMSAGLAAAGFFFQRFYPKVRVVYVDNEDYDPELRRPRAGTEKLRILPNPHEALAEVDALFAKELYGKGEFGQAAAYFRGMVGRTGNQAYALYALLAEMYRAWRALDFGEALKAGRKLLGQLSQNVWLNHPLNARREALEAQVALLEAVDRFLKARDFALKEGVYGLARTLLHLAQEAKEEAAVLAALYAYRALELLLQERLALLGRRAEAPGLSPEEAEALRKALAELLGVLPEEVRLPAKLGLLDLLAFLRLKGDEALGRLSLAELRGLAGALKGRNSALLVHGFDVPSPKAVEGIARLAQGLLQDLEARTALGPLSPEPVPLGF

[2] = test system: StCsm6' (Streptococcus thermophilus DGCC8004)
[3] = test system: StCsm6 (Streptococcus thermophilus DGCC8004)
[4] = cyclic, 3'-5' linked, c(AMP)6 amount sufficient to activate RNase on RNA NS

AAAA [c(AMP)4] gave an activity [1] of 50 nM.
AAAAAA [c(AMP)6] gave an activity [2, 4] of 5 nM and an activity [3, 4] of 0.5 nM.
Sequence “GGGCGGCAAAUUGAGGAUUUCGUAACUGUUUAAUUCUGUUCACUUAUUCCACCAACAAAAGGUGGCGA [RNA NS]” has an activity ([2]; StCsm6' concentration for degradation with cyclic oligoadenylates, 1 uM needed without, 1 mM EDTA, 37 C) of 1 nM and an activity ([3]; lowest StCsm6 concentration for degradation with 0.5 uM cyclic oligoadenylate mix, 1 uM needed without, 1 mM EDTA, 37 C) of 1 nM.

Source: patent US20210130799
